The text below walks through data of CN111303279A (INST PATHOGEN BIOLOGY CAMS, dated 2020).

Assay [1] concerns the target SARS-CoV-2病毒的包膜刺突糖蛋白(即S蛋白) (SARS-CoV-2, UniProt P0DTC2 14-1273). As to the kind of experiment: cell-based or functional assay.
The target of assay [2] is T1, SARS-CoV-2刺突蛋白RBD区重组蛋白 (SARS-CoV-2, UniProt P0DTC2 319-541). Briefly: SPR, BIAcore T-200, RBD amine-coupled on CM5 chip, VHH in flow. On the technique in general: SPR reads the build-up and loss of mass on a sensor chip optically.
For assay [3], the target named is T1, SARS-CoV-2刺突蛋白RBD区重组蛋白. As to the kind of experiment: SPR, BIAcore T-200; range told of the group, this end tied to 4D8 by table 1.
Assay [4] addresses T1, SARS-CoV-2刺突蛋白RBD区重组蛋白. Briefly: SPR, BIAcore T-200; range told of the group, this end tied to 5F8 by table 1.

In general, Kd refers to a measure of binding affinity in units of concentration. Lower therefore signals higher affinity. For orientation: koff means the first-order rate constant of dissociation. A lower koff goes with a long-lived complex. A word on the kon: it is the rate constant with which the complex forms. Read a high kon as fast association.

B1: 单域抗体4D8 (VHH)
VHH: QVQLVESGGGLVQPGGSLRLSCAASGNIDSTRYHGWFRQAPGKGLEAVAAIKGVWPEDYYADSVKGRFTISRDNSKNTLYLQMNSLRAEDTAVYYCAADQYEWWVPGEVGPYLYWGQGTQVTVSS
On to B1, for which the “抑制SARS-CoV-2假型病毒感染 IC50 (luciferase, Calu-3细胞)” value (shortened to “抑制SARS-CoV-2假型病毒感染 IC50”) in assay [1] was 0.247 µg/mL. Besides, in the assay with SARS-CoV-2刺突蛋白RBD区重组蛋白 [2], the dissociation constant (Kd) stood at 34 nM, the koff was found to be 0.00613 s⁻¹ and the kon came to 180000 M⁻¹ s⁻¹. In the assay with SARS-CoV-2刺突蛋白RBD区重组蛋白 [3], this molecule had a Kd of 33.9 nM.

B2: 单域抗体2F2 (VHH)
VHH: QVQLVESGGGLVQPGGSLRLSCAASGLAQSKWAYGWFRQAPGKGLEAVAAIDVATGPWYYADSVKGRFTISRDNSKNTLYLQMNSLRAEDTAVYYCAAHHIPTKHPAFPDFRDYWGQGTQVTVSS
Take B2: the “抑制SARS-CoV-2假型病毒感染 IC50” value in assay [1] was determined as 0.0235 µg/mL. In addition, in the assay with SARS-CoV-2刺突蛋白RBD区重组蛋白 [2], binding was characterised by a dissociation constant (Kd) of 0.846 nM, the koff came out at 0.000313 s⁻¹ and the on-rate constant (kon) was 370000 M⁻¹ s⁻¹.

B3: 单域抗体3F11 (VHH)
VHH: QVQLVESGGGLVQPGGSLRLSCAASGGNAAERMAGWFRQAPGKGLEAVAAIYYAKFGPYYADSVKGRFTISRDNSKNTLYLQMNSLRAEDTAVYYCAAEAFVQSPYSGSHTTKYWGQGTQVTVSS
On to B3, for which the “抑制SARS-CoV-2假型病毒感染 IC50” value in assay [1] turned out to be 0.0038 µg/mL. Also, in the assay with SARS-CoV-2刺突蛋白RBD区重组蛋白 [2], the Kd amounted to 3.15 nM, the koff is 0.00675 s⁻¹ and the on-rate constant (kon) was determined as 2.14e+06 M⁻¹ s⁻¹.

B4: 单域抗体5F8 (VHH)
VHH: QVQLVESGGGLVQPGGSLRLSCAASGRQAVVFGWFRQAPGKGLEAVAAIHVPAKNRYYADSVKGRFTISRDNSKNTLYLQMNSLRAEDTAVYYCAAHYEFNDFVWQGYSSDYWGQGTQVTVSS
B4 displayed a Kd with SARS-CoV-2刺突蛋白RBD区重组蛋白 [4] of 0.71 nM. For the same molecule, the “抑制SARS-CoV-2假型病毒感染 IC50” value in assay [1] amounted to 0.00338 µg/mL. In the assay with SARS-CoV-2刺突蛋白RBD区重组蛋白 [2], binding was characterised by a dissociation constant (Kd) of 0.716 nM, the off-rate (koff) worked out at 0.000211 s⁻¹ and the on-rate (kon) was found to be 295000 M⁻¹ s⁻¹.

B5: 单域抗体1E2 (VHH)
VHH: QVQLVESGGGLVQPGGSLRLSCAASGADAFVIIGGWFRQAPGKGLEAVAAIAWTDQHEYYADSVKGRFTISRDNSKNTLYLQMNSLRAEDTAVYYCAAQDSAYIKSKGSRAYEYWGQGTQVTVSS
As for B5, the “抑制SARS-CoV-2假型病毒感染 IC50” value in assay [1] stood at 0.31 µg/mL. In the assay with SARS-CoV-2刺突蛋白RBD区重组蛋白 [2], this molecule displayed an equilibrium dissociation constant (Kd) of 21.1 nM, an off-rate constant (koff) of 0.00518 s⁻¹ and a kon of 245000 M⁻¹ s⁻¹.
